Results as given in patent publication US20120077731A1 (Ablynx, published 2012).

Assays:
[1] = target: T1, Human plasma sIL-6R (human, UniProt P08887 20-355, limits assumed); test: plasma potency assay, human plasma ([IL6R]: ~0.4 nM, [IL6]: 2.4 nM printed); sIL-6R captured on BN-12, bound IL-6 detected; blocked ligand IL-6
T1 construct: also called plasma-derived human IL-6R
T1 sequence (looked up): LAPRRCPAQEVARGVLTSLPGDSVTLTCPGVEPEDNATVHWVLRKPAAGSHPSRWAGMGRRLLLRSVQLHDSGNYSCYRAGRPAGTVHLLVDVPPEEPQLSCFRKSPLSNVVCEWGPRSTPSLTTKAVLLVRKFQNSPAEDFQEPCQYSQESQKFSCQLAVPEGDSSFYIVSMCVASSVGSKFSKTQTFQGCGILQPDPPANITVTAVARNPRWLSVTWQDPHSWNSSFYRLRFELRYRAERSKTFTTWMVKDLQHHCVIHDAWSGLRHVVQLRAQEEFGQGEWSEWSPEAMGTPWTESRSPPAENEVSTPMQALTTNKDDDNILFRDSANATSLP

[2] = target: T1, Human plasma sIL-6R; test: plasma potency assay, human plasma, 42 nM IL6; sIL-6R captured on BN-12, bound IL-6 detected; blocked ligand IL-6
[3] = target: T2, Human soluble IL-6R (human, UniProt P08887 20-358); test: SPR (Biacore), binding curves at several concentrations of purified Nanobody on IL-6R
T2 construct: Soluble recombinant form; biotinylated in some assays; also called hIL-6R; human IL-6R
T2 sequence (looked up): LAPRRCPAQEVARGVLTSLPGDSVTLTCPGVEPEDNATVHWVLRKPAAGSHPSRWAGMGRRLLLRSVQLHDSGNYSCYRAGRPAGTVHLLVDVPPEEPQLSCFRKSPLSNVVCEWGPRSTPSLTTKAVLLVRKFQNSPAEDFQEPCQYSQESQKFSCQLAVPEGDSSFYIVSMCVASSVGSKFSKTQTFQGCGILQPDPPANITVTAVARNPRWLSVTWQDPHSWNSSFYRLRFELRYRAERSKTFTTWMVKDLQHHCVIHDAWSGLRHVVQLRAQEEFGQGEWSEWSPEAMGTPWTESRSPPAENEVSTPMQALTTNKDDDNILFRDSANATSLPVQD

[4] = target: T3, Cyno plasma sIL-6R (cynomolgus monkey, UniProt A0A2K5WN54 60-396); test: plasma potency assay, cyno plasma ([IL6R]: ~0.4 nM, [IL6]: 2.4 nM printed); sIL-6R captured on BN-12, bound IL-6 detected; blocked ligand IL-6
T3 construct: also called cynomolgus sIL-6R
T3 sequence: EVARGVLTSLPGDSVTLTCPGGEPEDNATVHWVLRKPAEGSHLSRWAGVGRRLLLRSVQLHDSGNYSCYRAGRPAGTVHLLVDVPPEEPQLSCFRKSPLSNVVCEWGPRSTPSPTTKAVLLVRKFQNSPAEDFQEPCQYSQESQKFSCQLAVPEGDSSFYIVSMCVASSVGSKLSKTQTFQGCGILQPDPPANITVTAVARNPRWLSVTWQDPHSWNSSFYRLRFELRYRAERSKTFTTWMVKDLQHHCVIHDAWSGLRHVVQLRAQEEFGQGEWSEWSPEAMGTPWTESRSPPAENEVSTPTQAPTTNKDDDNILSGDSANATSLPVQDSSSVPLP

[5] = target: T1, Human plasma sIL-6R; test: plasma potency assay, human plasma, 2.4 nM IL6; blocked ligand IL-6
Method: (§1) All 5 affinity matured Nanobodies and the sequence optimized Nanobody were also tested in a plasma potency assay. […] TMB was used as substrate.

[6] = target: T1, Human plasma sIL-6R; test: plasma potency assay, human plasma, 42 nM IL6; blocked ligand IL-6
Method: as §1

[7] = target: T3, Cyno plasma sIL-6R; test: plasma potency assay, cyno plasma, 2.4 nM IL6; blocked ligand IL-6
Method: as §1

[8] = target: T2, Human soluble IL-6R; test: Alphascreen IL-6/IL-6R competition (IL-6R 0.3 nM, bio-IL-6 3 nM); row EC50 of the fit table, axis [competitor], M; blocked ligand IL-6
[9] = target: T2, Human soluble IL-6R; test: Biacore, binding to IL-6R
[10] = target: T2, Human soluble IL-6R; test: Biacore off-rate, periplasmic extracts
[11] = target: T2, Human soluble IL-6R; test: SPR Biacore 3000, human IL-6R amine-coupled to CM5
Method: Remaining reactive groups were inactivated. Nanobody binding was assessed at various concentrations ranging from 0.5 to 50 nM. Each sample was injected for 4 min at a flow rate of 45 μl/min to allow for binding to chip-bound antigen. Next, binding buffer without Nanobody was sent over the chip at the same flow rate to allow for dissociation of bound Nanobody.

[12] = target: T4, Human membrane IL-6R on cells (human, UniProt P08887 20-468); test: cell-based or functional assay
T4 sequence (looked up): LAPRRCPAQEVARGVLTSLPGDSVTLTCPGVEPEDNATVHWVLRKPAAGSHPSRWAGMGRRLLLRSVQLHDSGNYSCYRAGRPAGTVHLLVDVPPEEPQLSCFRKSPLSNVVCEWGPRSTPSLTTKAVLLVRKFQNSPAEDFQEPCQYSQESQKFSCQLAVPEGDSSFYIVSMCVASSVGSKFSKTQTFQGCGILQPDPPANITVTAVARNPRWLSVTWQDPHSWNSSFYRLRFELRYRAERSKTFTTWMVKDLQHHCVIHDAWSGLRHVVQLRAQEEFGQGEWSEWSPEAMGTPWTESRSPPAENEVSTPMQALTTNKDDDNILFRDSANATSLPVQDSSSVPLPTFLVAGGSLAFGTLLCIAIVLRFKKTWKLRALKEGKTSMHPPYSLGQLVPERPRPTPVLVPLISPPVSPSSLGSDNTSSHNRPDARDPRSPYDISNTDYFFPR

[13] = target: T2, Human soluble IL-6R; test: Alphascreen IL-6/IL-6R competition with purified Nanobody; row EC50 of the table, axis [inhibitor], M; blocked ligand IL-6
[14] = target: T2, Human soluble IL-6R; test: Alphascreen IL-6/IL-6R competition (IL-6R 0.3 nM, bio-IL-6 3 nM); row EC50 of the fit table, axis [competitor], M; blocked ligand IL-6; remark: listed apart in the source

Binder	IC50 [1] [nM]	IC50 [2] [nM]	Kd [3] [nM]	IC50 [4] [nM]	Kd [9] [nM]	koff [9] [s⁻¹]	kon [9] [M⁻¹ s⁻¹]	other results
PMP7C4 (VHH, not shown: c-myc and (His)6 tags) VHH: EVQLVESGGGLVQPGGSLRLSCAASGTTFRINVMAWYRQAPGKGRELVAGIITNGSTSYADSVKGRFTISRDNAKNTLYLQMNSLRPEDTAVYYCAFVTTNSDYDLGRDYWGQGTLVTVSS	0.21	0.9	0.34	0.08				
PMP7D6 (VHH, not shown: c-myc and (His)6 tags) VHH: EVQLVESGGGLVQPGGSLRLSCAASGSIFRVNVMAWYRQAPGKGRELVAAVINGGTTTYADSVKGRFTISRDNAKNTLYLQMNSLRPEDTAVYYCAFVTTNSDYDLGRDYWGQGTLVTVSS	0.19	0.8	0.42	0.09				IC50 [5]: 0.25 nM; IC50 [6]: 0.95 nM; IC50 [7]: 0.13 nM
PMP7G7 (VHH, expressed with c-myc and (His)6 tags) VHH: EVQLVESGGGLVQPGGSLRLSCAASGTTFKINIMAWYRQAPGKGRELVAGVITGGNTTYADSVKGRFTISRDNAKNTLYLQMNSLRPEDTAVYYCAFVTTNSDYDLGRDYWGQGTLVTVSS	0.22	1.5	0.56	0.11				
PMP7G8 (VHH, expressed with c-myc and (His)6 tags) VHH: EVQLVESGGGLVQPGGSLRLSCAASGSTFRINVMAWYRQAPGKGRELVAGVINDGSTTYADSVKGRFTISRDNAKNTLYLQMNSLRPEDTAVYYCAFVTTNSDYDLGRDYWGQGTLVTVSS	0.34	3.5	0.95	0.14				
PMP7F4 (VHH) VHH: EVQLVESGGGLVQPGGSLRLSCAASGTTFKVNVMAWYRQAPGKGRELVAGIINGGSTTYADSVKGRFTISRDNAKNTLYLQMNSLRPEDTAVYYCAFVTTNSDYDLGRDYWGQGTLVTVSS	0.24	1.2	0.48	0.09				
IL6R81 (VHH) VHH: EVQLVESGGGLVQPGGSLRLSCAASGFTFDDYGMSWVRQAPGRATEWVSAISWNGNNTYYTESMKGRFTISRDNAKNTVYLQMNSLRPEDTAVYYCVKGSTAIVGVPPTYPDEYDYWGQGTLVTVSS					0.4	0.000128	320000	IC50 [8]: 0.0747 nM
IL6R83 (VHH) VHH: EVQLVESGGGLVQPGGSLRLSCAASGFTFDDYGMSWVRQAPGRATEWVSAISWNGNNTYYTESMKGRFTISRDNAKNTLYLQMNSLRPEDTAVYYCVKGSTAIVGVPPTYPDEYDYWGQGTLVTVSS					0.3	0.00012	350000	IC50 [8]: 0.0779 nM
IL6R82 (VHH) VHH: EVQLVESGGGLVQPGGSLRLSCAASGFTFDDYGMSWVRQAPGKGLEWVSAISWNGNNTYYTESMKGRFTISRDNAKNTVYLQMNSLRPEDTAVYYCVKGSTAIVGVPPTYPDEYDYWGQGTLVTVSS					5.1	0.00314	619000	IC50 [8]: 0.476 nM
IL6R88 (VHH, tested as periplasmic extract and purified) VHH: EVQLVESGGGLVQPGGSLRLSCAASGFTFDDYGMSWVRQAPGKGTEWVSAISWNGNNTYYTESMKGRFTISRDNAKNTLYLQMNSLRPEDTAVYYCVKGSTAIVGVPPTYPDEYDYWGQGTLVTVSS								koff [10]: 0.00026 s⁻¹; Kd [11]: 0.9 nM; koff [11]: 0.000213 s⁻¹; kon [11]: 230000 M⁻¹ s⁻¹; IC50 values (nM), XG-1 assay [12]: 3.3 nM; IC50 [13]: 0.0727 nM
IL6R84 (VHH) VHH: EVQLVESGGGLVQPGGSLRLSCAASGFTFDDYGMSWVRQAPGKGLEWVSAISWNGNNTYYTESMKGRFTISRDNAKNTLYLQMNSLRPEDTAVYYCVKGSTAIVGVPPTYPDEYDYWGQGTLVTVSS					5.4	0.00409	762000	IC50 [8]: 0.465 nM
IL6R71 (VHH) VHH: EVQLVESGGGLVQPGGSLRLSCAASGFTFDDYDIGWFRQAPGKGREGVSGISSSDGNTYYADSVKGRFTISSDNAKNTVYLQMNSLRPEDTAVYYCAAEPPDSSWYLDGSPEFFKYWGQGTLVTVSS					0.2	0.000153	703000	IC50 [14]: 0.153 nM
IL6R73 (VHH) VHH: EVQLVESGGGLVQPGGSLRLSCAASGFTFDDYDIGWFRQAPGKGREGVSGISSSDGNTYYADSVKGRFTISRDNAKNTVYLQMNSLRPEDTAVYYCAAEPPDSSWYLDGSPEFFKYWGQGTLVTVSS					0.3	0.000233	698000	IC50 [14]: 0.0916 nM
IL6R75 (VHH, also called ILR7.5; not shown: tag (IL6R201 is called the tagless version of IL6R75)) VHH: EVQLVESGGGLVQPGGSLRLSCAASGFTFSDYDIGWFRQAPGKGREGVSGISSSDGNTYYADSVKGRFTISRDNAKNTLYLQMNSLRPEDTAVYYCAAEPPDSSWYLDGSPEFFKYWGQGTLVTVSS								Kd [11]: 0.1 nM; koff [11]: 0.0001 s⁻¹; kon [11]: 1e+06 M⁻¹ s⁻¹; IC50 values (nM), XG-1 assay [12]: 0.04 nM; IC50 [13]: 0.0432 nM
IL6R74 (VHH) VHH: EVQLVESGGGLVQPGGSLRLSCAASGFTFDDYDIGWFRQAPGKGREGVSGISSSDGNTYYADSVKGRFTISSDNAKNTLYLQMNSLRPEDTAVYYCAAEPPDSSWYLDGSPEFFKYWGQGTLVTVSS					0.2	0.000122	767000	IC50 [14]: 0.133 nM
IL6R72 (VHH) VHH: EVQLVESGGGLVQPGGSLRLSCAASGFTFSDYDIGWFRQAPGKGREGVSGISSSDGNTYYADSVKGRFTISSDNAKNTVYLQMNSLRPEDTAVYYCAAEPPDSSWYLDGSPEFFKYWGQGTLVTVSS					0.3	0.00018	543000	IC50 [14]: 0.161 nM
